Laboratory results from article PMC9392796, “A mannose-sensing AraC-type transcriptional activator regulates cell–cell aggregation of Vibrio cholerae” (NPJ Biofilms and Microbiomes, 2022).

Assays:
ManR (VC1825) [1] = molecular target: T1, ManR (VC1825) (Vibrio cholerae, UniProt Q9KR22); conditions: 50 mM HEPES-NaOH pH 8.0, 500 mM NaCl, 10% glycerol, 1 mM TCEP, 0.5 mg/ml BSA, 0.05% Tween 20, 23 °C; NT-647-labelled protein 2 nM; effector (co-activator)
T1 construct: gene VC_1825

[2] = molecular target: ManR (VC1825), AraC-type transcriptional regulator of Vibrio cholerae (Vibrio cholerae N16961); test: not stated; Supplementary Fig. 3; method and conditions not shown
ManR (VC1825) [3] = molecular target: ManR (VC1825) (Vibrio cholerae N16961, UniProt Q9KR22 1-279); test: EMSA; one complex; conditions: protein: recombinant; chain copies: 2; blunt

Molecule	Kd (ManR (VC1825) [1])	binding result (ManR (VC1825) [3])	further results
O=P(O)(O)OC[C@H]1OC(O)[C@@H](O)[C@@H](O)[C@@H]1O (some centres unmarked) [M6P, mannose 6-phosphate]	~0.152 µM	–	–
ManR (VC1825), AraC-type transcriptional regulator of Vibrio cholerae (natural protein)	–	–	stoichiometry N [2]: 2
O=P(O)(O)OCC1(O)O[C@H](CO)[C@@H](O)[C@@H]1O (some centres unmarked) [F1P, fructose 1-phosphate]	~411 µM	–	–
MB2 WT (dsDNA) DNA 1: CAAACCAATAGAGTTACAATCCTCTAGTGAATGTTTTAT DNA 2: ATAAAACATTCACTAGAGGATTGTAACTCTATTGGTTTG	–	binds	–
MB1 WT (dsDNA) DNA 1: AGACAGAATGATACAATAATCCAGTTTTAACACCAATTC DNA 2: GAATTGGTGTTAAAACTGGATTATTGTATCATTCTGTCT	–	binds	–
